Here are results for one substance from patent US20050054043A1.

This test addresses transferrin receptor on HeLa S3 cells (human) (UniProt P02786). Kind of test: radioiodinated transferrin on HeLa S3 cells, no competitor.

Chain of transferrin receptor on HeLa S3 cells (human) (P02786 whole entry): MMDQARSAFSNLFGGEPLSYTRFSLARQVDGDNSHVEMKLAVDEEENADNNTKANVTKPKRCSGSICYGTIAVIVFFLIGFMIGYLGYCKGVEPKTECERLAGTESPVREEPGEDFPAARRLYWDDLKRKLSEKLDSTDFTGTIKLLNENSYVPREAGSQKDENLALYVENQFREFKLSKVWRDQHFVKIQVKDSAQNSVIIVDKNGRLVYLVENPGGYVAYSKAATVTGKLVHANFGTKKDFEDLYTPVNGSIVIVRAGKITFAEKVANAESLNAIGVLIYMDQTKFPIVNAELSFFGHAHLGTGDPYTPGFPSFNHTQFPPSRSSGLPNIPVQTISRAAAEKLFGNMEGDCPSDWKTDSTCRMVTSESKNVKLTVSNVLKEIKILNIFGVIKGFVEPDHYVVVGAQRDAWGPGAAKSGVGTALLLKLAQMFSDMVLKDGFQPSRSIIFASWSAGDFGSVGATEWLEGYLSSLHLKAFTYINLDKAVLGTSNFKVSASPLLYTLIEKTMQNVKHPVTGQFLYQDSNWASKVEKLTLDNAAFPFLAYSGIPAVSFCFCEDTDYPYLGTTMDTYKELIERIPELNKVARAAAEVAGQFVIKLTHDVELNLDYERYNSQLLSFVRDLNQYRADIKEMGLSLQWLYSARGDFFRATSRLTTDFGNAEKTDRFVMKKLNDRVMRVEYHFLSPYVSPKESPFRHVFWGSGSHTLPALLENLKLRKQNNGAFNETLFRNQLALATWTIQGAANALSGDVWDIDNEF

On to radiolabeled diferric transferrin, for which the TF/cell in the absence of competitor came out at 328000 TF/cell and the cpm bound in the absence of competitor amounted to 7480 cpm.
